Data published in article PMC10232371, “Enhanced rare-earth separation with a metal-sensitive lanmodulin dimer” (Nature, 2023).

B1: Hansschlegelia quercus lanmodulin (Hans-LanM), residues A24-K133 (natural protein)
chain: ASGADALKALNKDNDDSLEIAEVIHAGATTFTAINPDGDTTLESGETKGRLTEKDWARANKDGDQTLEMDEWLKILRTRFKRADANKDGKLTAAELDSKAGQGVLVMIMK
notes: lanmodulin (LanM) of Hansschlegelia quercus without its native 23-residue signal peptide; expressed with an N-terminal Met that is cleaved, so the first residue is A24; Metal-free (apo) or loaded with rare-earth(III) ions as named in each assay; expressed from pET-29b(+); also called wild-type Hans-LanM; source: E. coli, purified (SEC, dialysed against Chelex 100)

Legend:
[1] = target: Lanmodulin from Hansschlegelia quercus (Hans-LanM), wild type (Hansschlegelia quercus); test: SEC-MALS; Hans-LanM pre-incubated with 3 equiv. La(III), Nd(III) or Gd(III); 1.2-1.5 mg/mL loaded; buffer B (30 mM MOPS, 100 mM KCl, 5% glycerol, pH 7.0)
[2] = target: Lanmodulin from Hansschlegelia quercus (Hans-LanM), wild type (Hansschlegelia quercus); test: ITC; dilutive additions of 300 uM protein with 2 equivalents of Dy(III) into matched buffer (30 mM MOPS, 100 mM KCl, pH 7.0), 30 °C; Dimer Dissociation model; dimer to monomers
[3] = target: Lanmodulin from Hansschlegelia quercus (Hans-LanM), wild type (Hansschlegelia quercus); test: ITC; dilutive additions of 150 uM or 540 uM protein with 2 equivalents of La(III) into matched buffer (30 mM MOPS, 100 mM KCl, pH 7.0), 30 °C; no change of heats seen, only an upper limit; dimer to monomers
[4] = target: Lanmodulin from Hansschlegelia quercus (Hans-LanM), wild type (Hansschlegelia quercus); test: SEC; analytical size-exclusion chromatography of Hans-LanM in the presence of three equivalents of La(III)
[5] = target: Lanmodulin from Hansschlegelia quercus (Hans-LanM), wild type (Hansschlegelia quercus); test: ITC; dilutive additions of 300 uM apo protein into matched buffer (30 mM MOPS, 100 mM KCl, pH 7.0), 30 °C; Dimer Dissociation model; dimer to monomers
[6] = target: the molecule itself; test: SAXS; Nd(III)-bound protein from SEC-MALS fractions, 1.4 mg/mL; 30 mM MOPS, 100 mM KCl, 5% glycerol, pH 7.0, 22 C; Porod volume, OLIGOMER and CRYSOL analyses
[7] = target: the molecule itself; test: SAXS; La(III)-bound protein from SEC-MALS fractions, 1.5 mg/mL; 30 mM MOPS, 100 mM KCl, 5% glycerol, pH 7.0, 22 C; Porod volume, OLIGOMER and CRYSOL analyses
[8] = target: the molecule itself; test: SEC; analytical Superdex 75 column (24 mL); apo protein (590 uM, 100 uL) metalated with 3.0 equiv. Nd(III)
[9] = target: the molecule itself; test: SEC; analytical Superdex 75 column (24 mL); protein metalated with 3.0 equiv. La(III)

Row | Molecule | stoichiometry N [1] | Kd [2] [µM] | Kd [3] [nM] | stoichiometry N [4] | Kd [5] [µM] | stoichiometry N [6] | stoichiometry N [7] | stoichiometry N [8] | stoichiometry N [9]
1 | Lanmodulin from Hansschlegelia quercus (Hans-LanM), wild type (natural protein) | 2 | 60 | < 400 | 2 | 117 |  |  |  | 
2 | B1 |  |  |  |  |  | 2 | 2 | 2 | 2
